Data from the supplement of paper PMC10567573.

B1: TRIM43 (parent)
chain: FCDMDKSLLCLLCSNSQEHGAHKH

Variants of: B1
Assay: protein stability index of a GFP-peptide fusion (GPS, HEK-293T) (PSI 1-6); higher = more stable
Settings: c terminus: a fixed tail appended
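Note: lentivirally expressed fusions sorted by FACS into six bins by GFP to DsRed ratio, PSI derived from sequencing read proportions per bin multiplied by bin number.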

Protein stability index: each site, then its substitutions
L11: I 2.25, F 2.04, W 2.79, K 2.2, S 1.8, Q 2.36, D 2.75, A 2.21, H 2.04, N 2.07, P 1.83, E 2.93, M 1.86, C 1.44, G 1.93, T 2.51, Y 2.26, V 1.63, R 2.19
L8: H 2.54, F 2.5, M 2.31, N 2.81, T 2.32, A 2.43, C 2.64, K 2.86, S 3.1, P 2.51, G 2.3, R 2.71, I 1.96, Y 2.03, Q 2.82, E 3.8, D 3.41, V 2.72, W 2.3
D3: V 2.76, W 1.8, H 2.35, E 2.09, R 1.99, T 1.82, S 1.99, G 1.99, Q 2.07, Y 2.48, F 2, I 1.94, M 2.54, K 2.35, P 1.67, L 1.93, N 1.75
M4: E 2.58, F 2.04, I 1.96, Y 2.07, G 1.96, W 2.13, K 1.7, P 2, C 3.14, A 2.07, V 2.11, N 1.85, L 1.98, S 2.19, H 3.6, T 1.64, D 2.86, R 2.16, Q 1.88
L9: G 1.64, C 2.36, S 1.88, F 1.89, A 1.99, I 1.91, E 2.99, D 2.78, Q 2.68, H 1.93, T 2.29, K 2.61, P 2.84, R 2.08, V 2.16, W 1.55, M 1.92, N 2.52, Y 1.46
K6: R 1.56, Q 2.38, W 2.04, D 2.96, G 2.18, A 2.06, S 2.17, M 2.21, C 1.95, Y 2.17, P 2.12, N 2.32, H 2.09, V 1.74, E 2.29, T 1.94, I 2.04, L 1.97, F 2.24
C10: N 1.83, I 2.06, M 2.15, T 1.72, W 2.57, H 2.03, D 2.18, K 2.04, F 2.58, G 1.64, L 2.14, R 1.7, E 2.23, S 1.59, Y 2.65, V 1.86, Q 1.86, P 2.3, A 2.23
S16: Y 1.79, M 2.3, C 1.87, I 1.57, H 2, W 1.75, K 2.04, V 2.23, G 2.22, F 2.13, Q 2.13, N 2.06, L 2.15, D 1.97, T 2.07, E 1.8, R 2.12, P 2.65, A 1.8
D5: R 1.74, C 2.02, K 2.22, L 2.69, S 1.79, N 1.8, Y 2.18, G 2.33, P 2.29, Q 1.98, V 2.74, F 3.03, T 2.34, A 2.67, W 3.29, I 3.01, M 2.97, H 3.33, E 1.92
E18: I 1.4, N 1.87, D 2.11, R 1.86, K 1.86, F 1.75, H 1.81, V 2.28, T 1.68, P 1.83, W 1.98, S 1.63, A 2.12, M 1.83, Q 1.93, Y 1.71, L 1.7, G 1.78, C 2.3
S7: H 2.22, R 1.65, T 2.04, P 2.62, V 1.79, C 2.26, Q 2.54, M 2.23, F 2.72, K 1.92, A 1.77, I 1.84, L 1.93, N 2.22, Y 2.1, E 2.12, W 1.79, G 1.92, D 2.48
N15: W 1.89, C 1.77, S 2.07, D 2.26, K 2.26, R 2.1, H 1.55, V 1.89, E 1.92, Y 2.09, Q 1.87, G 1.94, T 1.77, M 1.66, L 2.4, A 1.6, P 1.34, F 2.01, I 2.49
H19: I 1.87, S 2.01, K 2.11, F 1.67, W 1.51, Q 1.41, R 2.03, A 1.91, N 1.75, D 2.38, L 1.42, M 2.03, E 1.98, C 2.03, V 1.59, T 1.83, G 2.18, Y 1.91, P 2.05
S14: L 2.08, F 1.45, M 1.85, R 2.2, G 2.26, K 2.12, C 1.88, D 1.72, N 2.01, Q 2.09, A 1.87, Y 1.82, V 1.71, E 2.02, W 2.06, P 1.98, H 1.87, I 1.52, T 2.02
C13: L 2.07, E 2.13, G 1.9, T 1.83, M 2.19, P 2.13, V 2.3, Y 1.68, W 2.72, D 1.99, Q 2.53, N 1.87, R 2.13, H 1.88, F 1.89, I 2.04, K 2.15, A 1.15, S 1.61
Q17: R 1.6, D 1.78, Y 2.19, V 1.67, K 2.13, C 2.22, P 1.7, M 1.58, F 2.05, N 1.51, T 1.61, W 1.74, S 1.55, L 1.63, G 1.84, A 1.85, E 2.1, H 1.76, I 1.78
G20: N 2.03, Q 1.95, C 2.59, E 2.36, I 1.66, P 2.27, K 1.93, H 1.92, F 1.67, D 2.19, A 1.89, M 1.47, L 1.74
L12: R 1.96, D 2.32, T 1.95, M 2.06, Q 2.65, W 3.13, Y 1.75, V 1.93, G 1.57, K 2.12, I 1.78, A 1.92, P 1.91, H 2.78, C 2.56, F 1.47, N 2.14, E 2.55, S 2.65
